Experimental data reported in publication PMC12295887.

Key:
[1] = biological target: actin purified from rabbit skeletal muscle (m. longissimus dorsi) (rabbit) (UniProt P68135)
[2] = biological target: actin purified from rabbit skeletal muscle (m. longissimus dorsi) (rabbit) (UniProt P68135); remark: listed apart in the source
[3] = biological target: actin purified from rabbit skeletal muscle (m. longissimus dorsi) (rabbit) (UniProt P68135); remark: listed apart in the source

- pyrene-actin fluorescence excitation and emission intensity after 800 s of polymerization, 4 µM actin (10% pyrene-labeled) with 5.5 nM PEVKII, against actin alone [1]: 16%
- initial rate of actin polymerization (pyrene assay, 4 µM actin), PEVKII 3.25-32.5 nM, against actin alone [2]: > 30 fold
- peak pyrene fluorescence intensity (total amount of F-actin), 4 µM actin, PEVKII 3.25-32.5 nM, against actin alone [3]: 22%
- time to reach the peak pyrene fluorescence intensity, 4 µM actin, PEVKII 3.25-32.5 nM, against actin alone [3]: > 3 times faster
Substance: PEVKII, the middle one-third segment of the human skeletal muscle titin PEVK domain (domain or fragment)
